Laboratory results: patent US20250369983A1

Biological target: full length gp41 HIV protein (Abcam) (human immunodeficiency virus-1 (HIV-1))
Experiment: ELISA titration: plates coated with 1 µg/mL antigen, 2F5 in 4-fold dilutions; y axis without label (absorbance)

Q: Which EC50 (read off the curve) does the source give for “2F5, broadly neutralizing human monoclonal antibody (Polymun Scientific)” here?
A: 0.1 µg/mL
